Earlier results as cited in patent US20250255929A1, “METHODS FOR REDUCING RISKS ASSOCIATED WITH HEART FAILURE AND FACTORS ASSOCIATED THEREWITH” (Stealth BioTherapeutics Inc., priority 2012, published 2025).
Square brackets hold non-standard residues; d marks the D form. Ends that are not written are not given here. Dmt = Cc1cc(O)cc(C)c1C[C@H](N)C(=O)O

Tested on: several mammalian cell types
Conditions: energy-independent manner, Zhao et al., J. Pharmacol Exp Ther., 304:425-432, 2003; cited from earlier work

2′,6′-Dmt-D-Arg-Phe-Lys-NH2 ([Dmt][dR]FK-NH2)
penetration of the plasma membrane: readily penetrates the plasma membrane
